Reference: PMC4051164, “Multiple transcription factors directly regulate Hox gene lin-39 expression in ventral hypodermal cells of the C. elegans embryo and larva, including the hypodermal fate regulators LIN-26 and ELT-6”

What was measured:
ZTF-17 [1] = biological target: T1, ZTF-17 (Caenorhabditis elegans, UniProt P45972 1-705); assay: EMSA; 50 mM KCl, 20 mM HEPES pH 7.9, 0.2 mM EDTA, 0.5 mM DTT, 3 mM MgCl2, 1 ug poly(dI-dC), 0.5 ug/ul BSA, 0-800 ng protein, 20 ul, 20 min on ice (4 C); settings: protein: recombinant; tags: N-terminal 6His (pQE-80L); label: 32P; blunt
T1 sequence: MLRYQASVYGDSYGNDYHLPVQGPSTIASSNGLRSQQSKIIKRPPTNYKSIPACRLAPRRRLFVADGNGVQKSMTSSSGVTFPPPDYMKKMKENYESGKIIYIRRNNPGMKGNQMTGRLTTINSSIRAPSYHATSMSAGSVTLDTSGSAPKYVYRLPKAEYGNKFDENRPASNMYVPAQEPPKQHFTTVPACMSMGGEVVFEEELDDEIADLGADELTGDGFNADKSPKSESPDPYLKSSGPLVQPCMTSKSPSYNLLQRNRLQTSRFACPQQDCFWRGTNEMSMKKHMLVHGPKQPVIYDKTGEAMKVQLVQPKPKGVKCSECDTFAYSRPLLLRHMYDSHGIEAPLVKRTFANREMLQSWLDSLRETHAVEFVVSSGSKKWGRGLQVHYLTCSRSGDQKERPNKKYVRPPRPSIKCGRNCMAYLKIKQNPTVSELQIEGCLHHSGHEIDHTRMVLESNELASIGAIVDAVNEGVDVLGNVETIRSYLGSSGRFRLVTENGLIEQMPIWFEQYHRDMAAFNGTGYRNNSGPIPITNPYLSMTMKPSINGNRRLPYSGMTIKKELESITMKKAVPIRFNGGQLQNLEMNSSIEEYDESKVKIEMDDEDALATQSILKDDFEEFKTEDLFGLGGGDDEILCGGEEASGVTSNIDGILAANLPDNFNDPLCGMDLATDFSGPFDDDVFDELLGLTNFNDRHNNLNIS

ALR-1 = ALR-1 (Caenorhabditis elegans, UniProt Q21836 1-362); assay: EMSA; self competes; 50 mM KCl, 20 mM HEPES pH 7.9, 0.2 mM EDTA, 0.5 mM DTT, 3 mM MgCl2, 1 ug poly(dI-dC), 0.5 ug/ul BSA, 0-800 ng protein, 20 ul, 20 min on ice (4 C); settings: protein: recombinant; tags: N-terminal 6His (pQE-80L); label: 32P; blunt
ZTF-17 [2] = biological target: T1, ZTF-17; assay: EMSA; also competes vs YF4-2; 50 mM KCl, 20 mM HEPES pH 7.9, 0.2 mM EDTA, 0.5 mM DTT, 3 mM MgCl2, 1 ug poly(dI-dC), 0.5 ug/ul BSA, 0-800 ng protein, 20 ul, 20 min on ice (4 C); settings: protein: recombinant; tags: N-terminal 6His (pQE-80L); label: 32P (probe); blunt
ZTF-17 [3] = biological target: T1, ZTF-17; assay: competition; cold competitor vs YF4-2; 50 mM KCl, 20 mM HEPES pH 7.9, 0.2 mM EDTA, 0.5 mM DTT, 3 mM MgCl2, 1 ug poly(dI-dC), 0.5 ug/ul BSA, 0-800 ng protein, 20 ul, 20 min on ice (4 C); settings: protein: recombinant; tags: N-terminal 6His (pQE-80L); blunt

Chain of ALR-1 (Q21836 whole entry): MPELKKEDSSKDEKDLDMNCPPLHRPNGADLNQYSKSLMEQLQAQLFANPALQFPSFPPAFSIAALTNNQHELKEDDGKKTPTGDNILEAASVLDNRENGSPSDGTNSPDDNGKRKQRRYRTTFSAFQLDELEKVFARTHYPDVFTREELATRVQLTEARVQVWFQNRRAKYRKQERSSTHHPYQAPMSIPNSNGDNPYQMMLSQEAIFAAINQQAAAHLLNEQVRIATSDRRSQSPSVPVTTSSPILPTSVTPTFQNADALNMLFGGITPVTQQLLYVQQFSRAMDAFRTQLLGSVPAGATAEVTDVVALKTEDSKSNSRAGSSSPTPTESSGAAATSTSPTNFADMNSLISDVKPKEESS

B1: YF4-2 (dsDNA)
DNA 1: GAGCAAGAGATGTGCTCTCGGCTCCACGAACCTCTTTGATCTATGCCGACAGTGGGGGAGATTGGAGAAGAAGCATGCTCCACCCTTCACGTGTATCAGTACGTCTGCGTCTTCTTGTGCGTGCCGCCCGGATTAGAAGACATGAAGTGGGAGGGCGATAGAGGAAATTCCGATGGCAATACCAAC
DNA 2: GTTGGTATTGCCATCGGAATTTCCTCTATCGCCCTCCCACTTCATGTCTTCTAATCCGGGCGGCACGCACAAGAAGACGCAGACGTACTGATACACGTGAAGGGTGGAGCATGCTTCTTCTCCAATCTCCCCCACTGTCGGCATAGATCAAAGAGGTTCGTGGAGCCGAGAGCACATCTCTTGCTC
Q: Does B1 bind (ZTF-17 [1])?
A: Result: binds

B2: ECR2 (dsDNA)
DNA 1: CCCATATGCTTCCTGCTGTGTGTGGCACGAGCGCCAATAA
DNA 2: TTATTGGCGCTCGTGCCACACACAGCAGGAAGCATATGGG
Q: Does B2 bind (ALR-1)?
A: Result: binds

B3: YF4-4 (dsDNA)
DNA 1: GCTCCACCCTTCACGTGTATCAGTACGTCTGCGTCTTCTTGTGCGTGCCGCCCGGATTAGAAGACATGAAGTGGGAGGGCGATAGAGGAAATTCCGATGGCAATACCAAC
DNA 2: GTTGGTATTGCCATCGGAATTTCCTCTATCGCCCTCCCACTTCATGTCTTCTAATCCGGGCGGCACGCACAAGAAGACGCAGACGTACTGATACACGTGAAGGGTGGAGC
Q: Does B3 bind (ZTF-17 [2])?
A: Result: binds

B4: YF4-3 (dsDNA)
DNA 1: GAGCAAGAGATGTGCTCTCGGCTCCACGAACCTCTTTGATCTATGCCGACAGTGGGGGAGATTGGAGAAGAAGCATGCTCCACCCTTCACGTGTATCAGTACG
DNA 2: CGTACTGATACACGTGAAGGGTGGAGCATGCTTCTTCTCCAATCTCCCCCACTGTCGGCATAGATCAAAGAGGTTCGTGGAGCCGAGAGCACATCTCTTGCTC
Q: Does B4 bind (ZTF-17 [3])?
A: Result: no binding
